Patent US20220389077A1, “ALLOGENEIC CELL COMPOSITIONS AND METHODS OF USE” (Poseida Therapeutics, Inc., priority 2018, published 2022)

Assays:
[1] = system: CAR-T cells; test: Expansion of CAR-T cells with CSR delivered transiently by mRNA or stably by piggyBac; assay type: cell-based, human; settings: for expansion of CAR-T cells (total live CAR-T cells): 19 day culture, BCMA CAR, CSR transient or stable
Text: FIG. 18 is a graph showing that delivery of CSR enhances the expansion of CAR-T cells. CSRs were delivered to CAR-T cells either transiently by mRNA or stably by piggyBac®. Pan T cells isolated from the blood of a normal donor were genetically modified using the piggyBac® DNA modification system and the standard Poseida process. Cells were co-electroporated in a single reaction with mRNA encoding the Super piggyBac™ transposase enzyme (SPB), a transposon encoding a BCMA CAR and selection gene, along with an additional mRNA encoding a CSR (either CD28z or CD2z; resulting in transient expression) or a CD19 mRNA control, or, with a transposon encoding a BCMA CAR, selection gene and a CSR (either CD28z or CD2z; resulting in stable expression). The cells were subsequently stimulated with agonist mAbs anti-CD2, anti-CD3 and anti-CD28, and were later selected for genetic modification over the course of a 19 day culture period. At the end of the initial culture period all T cells expressed the CAR, indicating successful selection for genetically-modified cells (data not shown). Bars represent total live CAR-T cells in well and numbers indicate fold-enhancement of expansion above CAR-T cells produced in the absence of a CSR or a CD19 mRNA control.
Pan T cells isolated from healthy donor blood were genetically modified using the piggyBac® DNA modification system in combination with the Cas-CLOVER™ gene-editing system (CC) for the production of allogeneic (Allo) CAR-T cells, or without CC gene-editing for the production of autologous (Auto) CAR-T cells; auto CAR-T cells were produced by nucleofection of an mRNA encoding the super piggyBac® transposase enzyme (SPB) and a transposon encoding a CAR, selection gene and a safety switch. […] Following EP, all cells were subsequently stimulated with a cocktail of agonist mAbs anti-CD2, anti-CD3 and anti-CD28, and were later selected for genetic modification over the course of a 19-day culture period using the selection gene. […]

[2] = system: DKO CAR-T cells; test: Expansion of TCRb/b2M double-knockout (DKO) CAR-T cells after stimulation with agonist mAbs anti-CD2, anti-CD3 and anti-CD28; assay type: cell-based, human; settings: 16 day culture; CSR delivered in piggyBac transposon
Text: FIGS. 9A-9B are a series of plots showing that piggyBac® delivery of CSR enhances the expansion of TCRb/b2M double-knockout CAR-T cells. Pan T cells isolated from normal donor blood were genetically modified using the piggyBac® DNA modification system in combination with the Cas-CLOVER™ gene-editing system. Cells were electroporated in a single reaction with a transposon encoding a CAR, selection gene and a CSR (either CD28z or CD2z), an mRNA encoding the super piggyBac™ transposase enzyme, an mRNA encoding Cas-CLOVER™, and multiple guide RNA (gRNA) targeting TCRb and b2M in order to knockout the TCR and MHCI (double-knockout; DKO). The cells were subsequently stimulated with agonist mAbs anti-CD2, anti-CD3 and anti-CD28, and were later selected for genetic modification over the course of a 16 day culture period. At the end of the initial culture period all T cells expressed the CAR, indicating successful selection for genetically-modified cells (data not shown).

[3] = system: Pan T cells; test: Surface expression of CSR and cellular activation (FSC-A, CD69) after mRNA electroporation of T cells; assay type: cell-based, human; settings: for cellular activation (FSC-A, CD69): absence of exogenous stimulation; for surface expression by flow cytometry: two days after electroporation of 10 μg mRNA
Method: Pan T cells from normal blood donors were stimulated with anti-CD3/anti-CD28 beads in standard T cell culture media, then rested. These cells were then electroporated (BTX ECM 830 electroporator @ 500V for 700 μs) with 10 μg of mRNA encoding either CD28 CSR, CD2 CSR, or wild-type CD19 control. Two days later the electroporated cells were examined by flow cytometry for surface-expression of each molecule and data are shown as stacked histograms. In addition, cell size (FSC-A) and CD69 expression was evaluated as a possible indication of cellular activation above the Mock electroporated control cells.

[4] = molecular target: T1, human CD48 (Homo sapiens, UniProt P09326); test: T cell degranulation (CD107a) against cells overexpressing CD48; assay type: cell-based; settings: 4-6 hours coculture; K562 or Rat2 cells
T1 construct: expressed in transfected cells; host or cells: K562 or Rat2 cells, electroporated/lipofected with mRNA
T1 sequence (P09326 27-220): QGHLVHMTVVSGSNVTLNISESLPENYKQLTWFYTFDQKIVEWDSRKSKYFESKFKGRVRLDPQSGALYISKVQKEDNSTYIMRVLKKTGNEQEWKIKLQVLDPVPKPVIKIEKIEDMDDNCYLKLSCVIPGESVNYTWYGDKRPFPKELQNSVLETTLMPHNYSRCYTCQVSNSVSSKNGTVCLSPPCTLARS
Method: FIG. 23D is a series of flow cytometry plots showing the expression of CD48, CD58 or CD59 on K562 and Rat2 cells. To confirm possible ligands for the CSR WT CD2z molecule, a panel of known and suspected ligands including human CD48, CD58, and CD59 were tested. Degranulation of engineered T cells was evaluated against the cell lines K562 and Rat2 that were made to overexpress the target ligands and confirmed for expression by FACS staining. Red histograms are unstained cells and blue histograms are cells that were electroporated/lipofected with mRNA and then stained for expression of the respective marker by FACS.
FIG. 23E is a bar graph showing that CSR CD2z recognizes human CD58, but not CD48 or CD59. To confirm possible ligands for the CSR WT CD2z molecule, a panel of known and suspected ligands including human CD48, CD58, and CD59 were tested. Degranulation of engineered T cells was evaluated against the cell lines K562 and Rat2 that were made to overexpress the target ligands and confirmed for expression by FACS staining. Cells were electroporated/lipofected with mRNA and then stained for expression of the respective marker by FACS. […] T cell degranulation is a surrogate of T cell killing that can be measured by FACS staining for intracellular CD107a expression following coculture with target cell lines expressing target antigen. […]

| Molecule | expansion of CAR-T cells (total live CAR-T cells) [1] | expansion of the cells in comparison to DKO CAR-T cells alone [2] | cellular activation (FSC-A, CD69) [3] | surface expression by flow cytometry [3] | degranulation (CD107a) against CD48 [4] | expansion of CAR-T cells compared to CAR-T cells produced without a CSR ([1]; 19-day culture, Auto and Allo CAR-T, CSR stable or mRNA 5, 10, 20 μg) |
| --- | --- | --- | --- | --- | --- | --- |
| CD28z CSR: chimeric stimulatory receptor: CD28 signal peptide, extracellular, transmembrane and cytoplasmic domains with CD3z intracellular domain (SEQ ID NO: 17060) | a greater degree of expansion | at least a two fold expansion | did not intrinsically activate the cells | Increased surface expression |  |  |
| CD2z CSR: chimeric stimulatory receptor: CD2 signal peptide, extracellular, transmembrane and cytoplasmic domains with CD3z intracellular domain (SEQ ID NO: 17062) (protein) MSFPCKFVASFLLIFNVSSKGAVSKEITNALETWGALGQDINLDIPSFQMSDDIDDIKWEKTSDKKKIAQFRKEKETFKEKDTYKLFKNGTLKIKHLKTDDQDIYKVSIYDTKGKNVLEKIFDLKIQERVSKPKISWTCINTTLTCEVMNGTDPELNLYQDGKHLKLSQRVITHKWTTSLSAKFKCTAGNKVSKESSVEPVSCPEKGLDIYLIIGICGGGSLLMVFVALLVFYITKRKKQRSRRNDEELETRAHRVATEERGRKPHQIPASTPQNPATSQHPPPPPGHRSQAPSHRPPPPGHRVQHQPQKRPPAPSGTQVHQQKGPPLPRPRVQPKPPHGAAENSLSPSSNRVKFSRSADAPAYKQGQNQLYNELNLGRREEYDVLDKRRGRDPEMGGKPRRKNPQEGLYNELQKDKMAEAYSEIGMKGERRRGKGHDGLYQGLSTATKDTYDALHMQALPPR | a greater degree of expansion | at least a two fold expansion | did not intrinsically activate the cells | Increased surface expression | not against human CD48 or CD59 | a greater degree of expansion |
